Starred links: 1 amine or outer side, 2 acyl side, 3 side chain; linkers in the order of their positions; H or OH if unused. Positions of bridges follow the written chain, without caps; N, C: chain ends. Non-standard residues stand in square brackets, D forms with d. Primed or numbered codes have the meaning given here. No end group written: not given here. PyrS2″ = (S)-3-amino-1-((pent-4-en-1-yloxy)carbonyl)pyrrolidine-3-carboxylic acid (stapling residue), C=CCCCOC(=O)N1CC[C@@](N[*:1])(C(=O)[*:2])C1; B5(4) = 2,2-bis(4-pentenyl)glycine = 2-amino-2-(pent-4-en-1-yl)hept-6-enoic acid (stitching residue), C=CCCCC(CCCC=C)(N[*:1])C(=O)[*:2]; PyrS2 = (S)-3-amino-1-((pent-4-en-1-yloxy)carbonyl)pyrrolidine-3-carboxylic acid, C=CCCCOC(=O)N1CC[C@@](N[*:1])(C(=O)[*:2])C1; B5(19) = 2-amino-2-(pent-4-en-1-yl)hept-6-enoic acid (bis(4-pentenyl)glycine), C=CCCCC(CCCC=C)(N[*:1])C(=O)[*:2]; B5 = 2-amino-2-(pent-4-en-1-yl)hept-6-enoic acid, C=CCCCC(CCCC=C)(N[*:1])C(=O)[*:2]; Phe(3-COOH) = N[C@@H](Cc1cccc(C(=O)O)c1)C(=O)O; 2F3MeF = Cc1cccc(C[C@H](N[*:1])C(=O)[*:2])c1F; Phe(2-CF3) = N[C@@H](Cc1ccccc1C(F)(F)F)C(=O)O; Phe(2-Cl) = N[C@@H](Cc1ccccc1Cl)C(=O)O; Bta = N[C@@H](Cc1csc2ccccc12)C(=O)O; αAllylPro = C=CC[C@@]1(C(=O)O)CCCN1; tBuAla = CC(C)(C)C[C@H](N)C(=O)O; PyrS2(4) = not defined here; hSer = N[C@@H](CCO)C(=O)O
T1: beta-catenin (in DLD1 TCF/LEF luciferase reporter cells) (UniProt P35222 1-781)
T1 sequence (looked up): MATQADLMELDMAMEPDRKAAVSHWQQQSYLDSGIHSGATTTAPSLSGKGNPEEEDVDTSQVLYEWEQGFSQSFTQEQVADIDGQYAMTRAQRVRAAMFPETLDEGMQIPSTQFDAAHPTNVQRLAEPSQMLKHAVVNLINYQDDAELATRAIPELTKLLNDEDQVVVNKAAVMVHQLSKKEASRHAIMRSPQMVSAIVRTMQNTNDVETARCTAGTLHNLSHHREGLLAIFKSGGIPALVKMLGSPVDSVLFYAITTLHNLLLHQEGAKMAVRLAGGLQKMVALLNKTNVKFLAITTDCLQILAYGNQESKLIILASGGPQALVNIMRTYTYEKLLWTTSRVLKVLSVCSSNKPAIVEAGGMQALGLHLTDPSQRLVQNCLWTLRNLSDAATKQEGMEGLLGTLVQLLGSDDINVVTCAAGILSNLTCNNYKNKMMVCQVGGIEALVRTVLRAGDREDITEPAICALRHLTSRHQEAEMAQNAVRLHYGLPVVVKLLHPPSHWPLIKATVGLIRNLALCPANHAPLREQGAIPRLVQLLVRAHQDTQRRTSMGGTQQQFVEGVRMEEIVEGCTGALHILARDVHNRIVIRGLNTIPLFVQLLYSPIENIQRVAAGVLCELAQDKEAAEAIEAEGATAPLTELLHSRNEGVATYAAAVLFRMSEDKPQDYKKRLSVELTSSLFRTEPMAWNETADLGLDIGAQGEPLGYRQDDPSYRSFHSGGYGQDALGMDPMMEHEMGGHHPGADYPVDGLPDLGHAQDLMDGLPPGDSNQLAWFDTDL

T2: full-length beta-Catenin (Uniprot ID P35222) (Homo sapiens (Human), UniProt P35222 2-781)
T2 construct: also called bCat; B-Catenin
T2 sequence: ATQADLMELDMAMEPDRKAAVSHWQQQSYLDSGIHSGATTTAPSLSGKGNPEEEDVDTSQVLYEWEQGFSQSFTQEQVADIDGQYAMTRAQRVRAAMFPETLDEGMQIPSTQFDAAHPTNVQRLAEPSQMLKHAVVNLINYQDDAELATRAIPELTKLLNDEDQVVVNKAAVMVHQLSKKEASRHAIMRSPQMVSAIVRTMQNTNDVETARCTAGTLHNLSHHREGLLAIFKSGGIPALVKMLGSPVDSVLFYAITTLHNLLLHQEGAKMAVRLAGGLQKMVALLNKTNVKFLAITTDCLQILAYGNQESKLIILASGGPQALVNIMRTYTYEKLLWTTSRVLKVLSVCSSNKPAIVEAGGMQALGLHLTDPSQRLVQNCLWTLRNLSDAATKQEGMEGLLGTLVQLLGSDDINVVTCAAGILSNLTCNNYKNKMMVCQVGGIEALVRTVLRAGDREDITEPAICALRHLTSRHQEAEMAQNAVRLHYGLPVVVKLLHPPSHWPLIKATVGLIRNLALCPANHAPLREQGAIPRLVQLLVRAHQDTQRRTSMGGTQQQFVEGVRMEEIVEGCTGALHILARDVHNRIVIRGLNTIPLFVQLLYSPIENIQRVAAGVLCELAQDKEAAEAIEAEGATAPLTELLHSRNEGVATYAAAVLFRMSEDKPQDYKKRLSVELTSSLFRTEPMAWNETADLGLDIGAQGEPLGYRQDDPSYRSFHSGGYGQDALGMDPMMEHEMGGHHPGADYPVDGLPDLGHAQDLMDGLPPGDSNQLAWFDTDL

T3: beta-catenin (Homo sapiens (Human), UniProt P35222 1-781)
T3 construct: The FP protocol says full-length beta-Catenin (Uniprot ID P35222); also called full-length beta-Catenin; bCat
T3 sequence: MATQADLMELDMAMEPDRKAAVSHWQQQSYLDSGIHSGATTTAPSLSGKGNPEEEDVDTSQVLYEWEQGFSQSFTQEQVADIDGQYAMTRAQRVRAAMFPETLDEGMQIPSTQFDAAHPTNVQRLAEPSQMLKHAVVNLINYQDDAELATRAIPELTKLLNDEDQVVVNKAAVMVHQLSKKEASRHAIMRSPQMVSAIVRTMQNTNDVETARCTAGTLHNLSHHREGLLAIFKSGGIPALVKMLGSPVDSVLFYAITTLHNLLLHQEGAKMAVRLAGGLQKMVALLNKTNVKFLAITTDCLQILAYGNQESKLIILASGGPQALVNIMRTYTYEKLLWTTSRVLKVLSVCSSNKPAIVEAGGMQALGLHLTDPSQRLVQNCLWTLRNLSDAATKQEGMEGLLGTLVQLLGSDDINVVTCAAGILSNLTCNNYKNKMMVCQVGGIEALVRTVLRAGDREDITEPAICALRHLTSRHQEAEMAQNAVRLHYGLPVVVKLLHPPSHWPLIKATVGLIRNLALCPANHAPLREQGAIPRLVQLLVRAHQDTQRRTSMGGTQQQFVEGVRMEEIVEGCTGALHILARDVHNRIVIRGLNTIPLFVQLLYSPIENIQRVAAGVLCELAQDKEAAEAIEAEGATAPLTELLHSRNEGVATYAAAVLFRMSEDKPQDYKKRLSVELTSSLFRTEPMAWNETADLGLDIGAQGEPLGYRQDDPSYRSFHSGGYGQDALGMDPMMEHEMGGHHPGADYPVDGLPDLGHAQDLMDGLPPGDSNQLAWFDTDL


Target: T1, beta-catenin (in DLD1 TCF/LEF …)
Assay: cell-based or functional assay

DLD1 4% Abs IC50 [µM] | Binder
1.2 | [αAllylPro]D[tBuAla][B5]D[Phe(3-COOH)]AAFL[PyrS2][Phe(2-Cl)][Bta]S-NH2 (staple 1-4, 4-11) [I-1333]
0.9 | [αAllylPro]D[tBuAla][B5(4)]D[Phe(3-COOH)]AAFL[PyrS2(4)][2F3MeF][Bta]Q-NH2 (staple 1-4, 4-11; not fully specified; reading uncertain) [I-1335]
0.7 | [αAllylPro]D[tBuAla][B5]D[Phe(3-COOH)]AAFL[PyrS2][Phe(2-CF3)][Bta]S-NH2 (staple 1-4, 4-11) [I-1336]
0.9 | [αAllylPro]D[tBuAla][B5(4)]D[Phe(3-COOH)]AAFL[PyrS2″][Phe(2-Cl)][Bta]Q-NH2 (staple 1-4, 4-11) [I-1332]
3.4 | [αAllylPro]D[tBuAla][B5(4)]D[Phe(3-COOH)]AAFF[PyrS2″][Phe(2-Cl)][Bta]Q-NH2 (staple 1-4, 4-11) [I-1338]

Target: T2, full-length beta-Catenin (Uniprot ID …)
Assay: fluorescence polarization competition, 5FAM-TCF4 10-53 probe on full-length beta-catenin
Protocol: The plate was incubated protected from light for 60 minutes at 20° C. prior to read. Reads were performed on a CLARIOstar plate reader (BMG Labtech) in duplicate, and data were fitted to a 1:1 binding model with hill slope using an in-house script. All provided concentrations are final concentrations.

EC50 [nM] | Binder
13 | Ac-[αAllylPro]DF[B5]DDAAFS[PyrS2][Phe(2-Cl)][Bta]T-NH2 (staple 1-4, 4-11, Stapled (stitched) peptide by olefin metathesis; E/Z isomer(s) of the staples not assigned) [I-1141]
33 | Ac-[αAllylPro]DF[B5]DDAAFL[PyrS2][Phe(2-Cl)][Bta][dT]-NH2 (staple 1-4, 4-11, Stapled (stitched) peptide by olefin metathesis; E/Z isomer(s) of the staples not assigned) [I-1146]
28 | Ac-[αAllylPro]DF[B5]DDAAFS[PyrS2][Phe(2-Cl)][Bta]L-NH2 (staple 1-4, 4-11, Stapled (stitched) peptide by olefin metathesis; E/Z isomer(s) of the staples not assigned) [I-1144]
18 | Ac-[αAllylPro]DF[B5]DDAAFL[PyrS2][Phe(2-Cl)][Bta]T-NH2 (staple 1-4, 4-11, Stapled (stitched) peptide by olefin metathesis; E/Z isomer(s) of the staples not assigned) [I-1145]
12 | Ac-[αAllylPro]DF[B5]DDAAFS[PyrS2][Phe(2-Cl)][Bta][hSer]-NH2 (staple 1-4, 4-11, Stapled (stitched) peptide by olefin metathesis; E/Z isomer(s) of the staples not assigned) [I-1143]
22 | Ac-[αAllylPro]DF[B5]DDAAFS[PyrS2][Phe(2-Cl)][Bta][dT]-NH2 (staple 1-4, 4-11, Stapled (stitched) peptide by olefin metathesis; E/Z isomer(s) of the staples not assigned) [I-1142]

Target: T3, beta-catenin
Assay: fluorescence polarization competition; full-length beta-catenin with 5FAM-TCF4(10-53) probe as competitor
Outline: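 Fluorescence polarization was read in duplicate after the plate sat 60 minutes at 20° C. shielded from light. Values come from fitting to a 1:1 binding model with hill slope.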

EC50 [nM] | Binder
106 | Ac-[αAllylPro]DL[B5(4)]DDAAFL[PyrS2″][Phe(2-Cl)][Bta]L-NH2 (staple 1-4, 4-11; also: staple isomer composition of earlier HPLC peak, stapled peptide) [I-1418]
388 | Ac-[αAllylPro]DN[B5(4)]DDAAFL[PyrS2″][Phe(2-Cl)][Bta]L-NH2 (staple 1-4, 4-11, stapled peptide) [I-1422]
9 | Ac-[αAllylPro]DL[B5(19)]DDAAFL[PyrS2]F[Bta]Q-NH2 (staple 1-4, 4-11, stapled peptide) [I-1402]

Source: patent US20240116985A1 (published 2024)
